Consider 2 substances from article PMC8593154.

For assay [1], the target named is γB2ΔICD-EC5-VenusΔN3C9-P3 (mouse) (UniProt Q91XX7). Put plainly: FRET or BRET; acceptor photobleaching at cell adhesion sites of co-cultured HEK293T cells individually expressing donor (mTQ2) and acceptor (Venus) constructs; trans interaction across cells.
Assay [2] addresses γB2ΔICD-EC5-Venus (mouse) (UniProt Q91XX7). The assay is described as above.

In turn, “γB2ΔICD-EC1-G4S-mTQ2ΔC6 (from UniProt Q91XX7 1-738) (receptor)” had an FRET efficiency in assay [1] of 27.4%.
With “γB2ΔICD-EC1-mTQ2 (from UniProt Q91XX7 1-738) (receptor)”, the FRET efficiency in assay [2] turned out to be 14.1%.
